This passage reports activity results from patent US20140193915, “COMPOSITIONS AND METHODS FOR CUSTOM SITE-SPECIFIC DNA RECOMBINASES” (Monsanto Technology, LLC, published 2014).

Common to all, as to assay: cell_activity; E. coli
In one series the target is T1, sN-TALER IV-4 (synthetic).
T1 chain: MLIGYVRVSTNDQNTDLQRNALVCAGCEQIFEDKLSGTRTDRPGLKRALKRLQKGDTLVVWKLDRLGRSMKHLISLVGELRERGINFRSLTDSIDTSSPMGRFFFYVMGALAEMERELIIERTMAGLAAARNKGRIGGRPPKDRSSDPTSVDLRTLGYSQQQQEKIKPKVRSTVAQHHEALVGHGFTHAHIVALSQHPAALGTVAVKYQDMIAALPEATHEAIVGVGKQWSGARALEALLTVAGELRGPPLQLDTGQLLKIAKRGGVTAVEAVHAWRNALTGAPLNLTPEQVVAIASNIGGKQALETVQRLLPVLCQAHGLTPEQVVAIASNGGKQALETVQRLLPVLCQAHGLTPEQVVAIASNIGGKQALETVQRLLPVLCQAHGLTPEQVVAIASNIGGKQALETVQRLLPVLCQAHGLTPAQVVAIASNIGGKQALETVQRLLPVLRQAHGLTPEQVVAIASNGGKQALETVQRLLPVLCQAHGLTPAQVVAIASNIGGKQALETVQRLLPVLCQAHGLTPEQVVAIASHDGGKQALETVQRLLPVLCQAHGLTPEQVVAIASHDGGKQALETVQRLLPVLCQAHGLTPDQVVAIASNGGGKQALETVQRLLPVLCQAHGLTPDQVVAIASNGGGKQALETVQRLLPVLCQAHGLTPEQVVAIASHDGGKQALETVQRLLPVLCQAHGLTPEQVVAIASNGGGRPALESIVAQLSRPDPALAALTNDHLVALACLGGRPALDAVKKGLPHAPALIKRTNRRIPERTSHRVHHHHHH
Particulars: tags: 6-His. In short, it runs like this: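 DH5alpha cells co-transformed (heat shock or electroporation) with N-TALER expression and reporter plasmids at ~1:1 mass ratio; reporter alone as control. Plated on chloramphenicol/kanamycin/X-gal, grown 37° C. for 18 to 36 hours; recombination scored by colony colour.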

For the next series, the target named is T2, pN-TALER IV-5-EE2 (synthetic).
T2 chain: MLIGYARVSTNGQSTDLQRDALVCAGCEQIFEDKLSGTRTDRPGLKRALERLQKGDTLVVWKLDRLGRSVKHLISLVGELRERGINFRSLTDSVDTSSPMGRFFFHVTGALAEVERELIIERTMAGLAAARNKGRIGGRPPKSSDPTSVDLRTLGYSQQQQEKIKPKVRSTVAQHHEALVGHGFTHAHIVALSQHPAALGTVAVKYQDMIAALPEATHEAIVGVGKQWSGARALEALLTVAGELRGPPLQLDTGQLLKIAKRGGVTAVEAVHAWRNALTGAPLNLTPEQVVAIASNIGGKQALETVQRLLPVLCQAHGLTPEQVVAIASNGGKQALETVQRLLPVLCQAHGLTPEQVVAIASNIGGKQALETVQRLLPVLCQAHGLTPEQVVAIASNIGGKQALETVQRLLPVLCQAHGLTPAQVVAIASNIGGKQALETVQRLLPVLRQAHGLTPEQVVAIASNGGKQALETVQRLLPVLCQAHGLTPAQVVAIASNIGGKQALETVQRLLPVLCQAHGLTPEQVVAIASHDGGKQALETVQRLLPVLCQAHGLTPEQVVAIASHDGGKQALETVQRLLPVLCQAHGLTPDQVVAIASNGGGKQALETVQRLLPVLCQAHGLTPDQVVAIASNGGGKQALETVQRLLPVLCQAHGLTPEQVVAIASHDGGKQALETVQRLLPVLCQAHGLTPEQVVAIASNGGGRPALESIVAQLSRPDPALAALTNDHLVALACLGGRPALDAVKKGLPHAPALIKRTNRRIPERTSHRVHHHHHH
Particulars: tags: 6-His.

The target in a further series is T3, sN-TALER IV-12 (synthetic).
T3 chain: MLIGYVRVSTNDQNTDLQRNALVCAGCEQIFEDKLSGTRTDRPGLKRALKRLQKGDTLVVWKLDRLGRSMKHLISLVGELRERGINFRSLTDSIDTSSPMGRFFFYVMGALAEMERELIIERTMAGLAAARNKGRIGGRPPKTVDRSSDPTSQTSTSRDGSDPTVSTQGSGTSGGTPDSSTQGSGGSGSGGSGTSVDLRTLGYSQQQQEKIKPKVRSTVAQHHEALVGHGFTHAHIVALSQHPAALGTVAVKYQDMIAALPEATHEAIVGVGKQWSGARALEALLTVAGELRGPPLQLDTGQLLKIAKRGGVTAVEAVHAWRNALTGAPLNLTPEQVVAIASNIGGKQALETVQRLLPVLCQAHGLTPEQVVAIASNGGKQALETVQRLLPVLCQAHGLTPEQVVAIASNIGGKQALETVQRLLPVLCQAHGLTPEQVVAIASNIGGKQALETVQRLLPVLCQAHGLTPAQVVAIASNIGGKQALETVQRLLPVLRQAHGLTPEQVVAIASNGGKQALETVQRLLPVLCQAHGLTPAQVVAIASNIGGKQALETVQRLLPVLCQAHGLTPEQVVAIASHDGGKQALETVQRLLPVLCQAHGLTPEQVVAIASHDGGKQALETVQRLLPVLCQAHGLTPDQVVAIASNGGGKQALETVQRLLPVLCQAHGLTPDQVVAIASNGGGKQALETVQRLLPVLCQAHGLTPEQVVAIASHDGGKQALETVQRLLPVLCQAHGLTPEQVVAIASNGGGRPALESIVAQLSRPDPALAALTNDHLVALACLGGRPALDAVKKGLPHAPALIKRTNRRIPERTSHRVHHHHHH
On the procedure:
To test for recombination, E. coli DH5alpha cells were co-transformed with different combinations of TALER expression construct and TALER reporter construct pairs (Tables 6 and 7). The N-TALER expression and reporter constructs were in an approximate 1:1 mass ratio during the transformation. The co-transformed bacteria were plated on media with chloramphenicol, kanamycin, and X-gal then incubated at 37° C. for 18 to 36 hours. Control samples consisted of transformations using the reporter construct alone. Control transformants were similarly plated. The bacterial transformation protocol was either heat shock or electroporation per standard molecular biology techniques.
The N-TALER expression constructs representing the N-TALER chimeras with varying linker lengths were co-transformed with N-TALER reporter constructs with TALER central sequence lengths of 18, 20, 24, 30, 40, and 50 bp (Table 13). […] Recombination did occur, but was less efficient with the pN-TALER IV-14 (linker length of 71 amino acids) with each of the N-TALER reporters tested.

B1: Gin18TALE+0 (dsDNA)
DNA 1: AGAAGGTATTTATACCAAAACCATGGTTTACATATAAATACCTTCT
DNA 2: AGAAGGTATTTATATGTAAACCATGGTTTTGGTATAAATACCTTCT
For the molecule B1, the activity in the series with sN-TALER IV-4 was 4 score.

B2: Gin20TALE+0 (dsDNA)
DNA 1: AGAAGGTATTTATATCCAAAACCATGGTTTACAGTATAAATACCTTCT
DNA 2: AGAAGGTATTTATACTGTAAACCATGGTTTTGGATATAAATACCTTCT
For B2, the activity in the series with sN-TALER IV-4, with pN-TALER IV-5-EE2 and in the series with sN-TALER IV-12 was 1 score each time.
